# Results: patent EP4768039A1, “PHARMACEUTICAL COMPOSITION AND USE THEREOF” (Shanghai Regenelead Therapies Co., Ltd., priority 2023, dated 2025)
# Columns and labels:
# [1] = target: Human VEGF-A protein (human) (UniProt P15692); experiment: cell-based or functional assay
# [2] = Temperature sensitivity of pH of different buffers; type: physicochemical; conditions: buffer working solutions, 2 °C to 30 °C; FIG. 17
# Protocol: • 1. About 3 mL of each of different buffers was added to a centrifuge tube. The pH value in the process of cooling from 30 °C to about 2 °C was measured with a pH meter in an ice-water bath and recorded, and then the pH change in the process of heating the solution from 2 °C to 30 °C was recorded. Table 30. Buffering ranges of different buffers
# [3] = pH range of the buffer system; cited from earlier work
# Chain of UniProt P15692 (P15692 other isoform, or with tags, fused parts or gaps limits assumed): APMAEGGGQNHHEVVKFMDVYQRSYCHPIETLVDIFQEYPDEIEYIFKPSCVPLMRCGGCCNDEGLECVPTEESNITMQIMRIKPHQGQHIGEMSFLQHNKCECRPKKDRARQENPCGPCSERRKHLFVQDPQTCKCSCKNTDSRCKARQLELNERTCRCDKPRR
Molecule,VEGF-A IC50 (nM); VEGF-A-induced NFAT-RE Luc2P KDR reporter cells [1] [nM],pH decrease as the temperature increased by 1 °C [2],Buffering range [3]
PR1147(R1D2-R2D3-linker-R2D2(C162V)-R2D3(L313Y)-Fc) (from UniProt P01857 104-330) (Fc fusion),1.16,,
PR1136(R1D2-R2D3-linker-R2D2-R2D3(L313R)-Fc) (from UniProt P01857 104-330) (Fc fusion),0.14,,
PR1170(R1D2-R2D3-R2D2(C162V/Y221S/R222K)-R2D3(N274F/S283T)-Fc) (Fc fusion),0.89,,
PR1142(R1D2-R2D3-linker-R2D2(C162V)-R2D3(N274I)-Fc) (from UniProt P01857 104-330) (Fc fusion),0.99,,
PR1171(R1D2-R2D3-linker-R2D2(C162V)-R2D3(N274F/S283T)-Fc) (from UniProt P01857 104-330) (Fc fusion),1.09,,
PR1115(R1D2-R2D3-linker-R2D2-R2D3(R275L)-Fc) (from UniProt P01857 104-330) (Fc fusion),0.28,,
PR1141(R1D2-R2D3-linker-R2D2(C162V)-R2D3(N274F)-Fc) (from UniProt P01857 104-330) (Fc fusion),1.14,,
PR1114(R1D2-R2D3-linker-R2D2-R2D3(N274I)-Fc) (from UniProt P01857 104-330) (Fc fusion),0.36,,
"OCC(CO)(CO)NCCCNC(CO)(CO)CO [BTP, bis-tris propane]",,about 0.024,6.3-9.5
PR1124(R1D2-R2D3-linker-R2D2-R2D3(S283T)-Fc) (from UniProt P01857 104-330) (Fc fusion),0.29,,
PR1143(R1D2-R2D3-linker-R2D2(C162V)-R2D3(R275L)-Fc) (from UniProt P01857 104-330) (Fc fusion),0.84,,
PR1167(R1D2-R2D3-R2D2(C162V)-R2D3(N274F/S283T)-Fc) (Fc fusion),1.1,,
PR1126(R1D2-R2D3-linker-R2D2-R2D3(F288Y)-Fc) (from UniProt P01857 104-330) (Fc fusion),0.7,,
PR1150(R1D2-R2D3-linker-R2D2(C162V)-R2D3(L313R)-Fc) (from UniProt P01857 104-330) (Fc fusion),0.81,,
PR1094(R1D2-R2D3-linker-R2D2(C162V)-R2D3-Fc) (from UniProt P01857 104-330) (Fc fusion),0.34,,
PR1119(R1D2-R2D3-linker-R2D2-R2D3(L277R)-Fc) (from UniProt P01857 104-330) (Fc fusion),0.14,,
PR1173(R1D2-R2D3-linker-R2D2(C162V/Y221S/R222K)-R2D3(S283T)-Fc) (from UniProt P01857 104-330) (Fc fusion),1.08,,
PR1120(R1D2-R2D3-linker-R2D2-R2D3(K278D)-Fc) (from UniProt P01857 104-330) (Fc fusion),0.38,,
PR1169(R1D2-R2D3-R2D2(C162V/Y221S/R222K)-R2D3(S283T)-Fc) (Fc fusion),0.9,,
PR1122(R1D2-R2D3-linker-R2D2-R2D3(K278E)-Fc) (from UniProt P01857 104-330) (Fc fusion),0.36,,
PR1129(R1D2-R2D3-linker-R2D2-R2D3(M314S)-Fc) (from UniProt P01857 104-330) (Fc fusion),0.67,,
PR1148(R1D2-R2D3-linker-R2D2(C162V)-R2D3(L277R/L289Y)-Fc) (from UniProt P01857 104-330) (Fc fusion),1.49,,
PR1109(R1D2-R2D3-linker-R2D2(V219I)-R2D3-Fc) (from UniProt P01857 104-330) (Fc fusion),0.18,,
PR1172(R1D2-R2D3-linker-R2D2(C162V/Y221S/R222K)-R2D3(N274F)-Fc) (from UniProt P01857 104-330) (Fc fusion),0.92,,

# The next lines start with results.
VEGF-A IC50 (nM); VEGF-A-induced NFAT-RE Luc2P KDR reporter cells [1] [nM],pH decrease as the temperature increased by 1 °C [2],Molecule,Buffering range [3]
,about 0.024,NC(CO)(CO)CO [Tris],7.0-9.2
0.92,,PR1165(R1D2-R2D3-linker-R2D2(C162I)-R2D3-Fc) (from UniProt P01857 104-330) (Fc fusion),
1.15,,PR1168(R1D2-R2D3-R2D2(C162V/Y221S/R222K)-R2D3(N274F)-Fc) (Fc fusion),
0.21,,PR1123(R1D2-R2D3-linker-R2D2-R2D3(Q280E)-Fc) (from UniProt P01857 104-330) (Fc fusion),
0.22,,PR1118(R1D2-R2D3-linker-R2D2-R2D3(D276Q)-Fc) (from UniProt P01857 104-330) (Fc fusion),
0.82,,PR1149(R1D2-R2D3-linker-R2D2(C162V/Y221S/R222K)-R2D3-Fc) (from UniProt P01857 104-330) (Fc fusion),
2.71,,PR1010(R1D2-R2D3-linker-R2D2-R2D3-Fc) (from UniProt P01857 104-330) (Fc fusion),
0.23,,PR1125(R1D2-R2D3-linker-R2D2-R2D3(E284H)-Fc) (from UniProt P01857 104-330) (Fc fusion),
,about 0.001,"O=S(=O)(O)CCN1CCN(CCO)CC1 [HEPES, N-2-hydroxyethylpiperazine-N'-2-ethanesulfonic acid]",6.8-8.2
0.98,,PR1146(R1D2-R2D3-linker-R2D2(C162V)-R2D3(L289Y)-Fc) (from UniProt P01857 104-330) (Fc fusion),
1.12,,PR1166(R1D2-R2D3-linker-R2D2(C162L)-R2D3-Fc) (from UniProt P01857 104-330) (Fc fusion),
